Measurements as given in US20180273635A1 (Zymeworks, published 2018).
Changes are numbered by the printed parent chain.

B1: Variant 14020 (antibody, name in Kabat numbering, V domains shown)
VH: EVQLVESGGGLVQPGGSLRLSCAASGFTFQDYTMDWVRQAPGKGLEWVGDVNPNSGGSIYNQRFKGRFTFSVDRSKNTLYLQMNSLRAEDTAVYYCARNLGPWFYFDYWGQGTLVTVSS
VL: DIQMTQSPSSLSASVGDRVTITCKASQDVSIGVAWYQQKPGKAPKLLIYSASYRYTGVPSRFSGSGSGTDFTLTISSLQPEDFATYYCQQYYIYPYTFGQGTKVEIKR
notes: also called v14020
B2: Variant 14023 (antibody, name in Kabat numbering, V domains shown)
VH: B1 VH with K76W
VL: B1 VL with Y49W
notes: also called v14023
B3: Variant 14021 (antibody, name in Kabat numbering, V domains shown)
VH: B1 VH with K76W, W103S
VL: B1 VL with Y49W
notes: also called v14021
B4: Variant 14022 (antibody, name in Kabat numbering, V domains shown)
VH: B1 VH
VL: B1 VL with Y49W
notes: also called v14022
B5: Variant 10014 (antibody)
heavy: EVQLVESGGGLVQPGGSLRLSCAASGFTFADYTMDWVRQAPGKGLEWVADVNPNSGGSIYNQRFKGRFTLSVDRSKNTLYLQMNSLRAEDTAVYYCARNLGPSFYFDYWGQGTLVTVSSASTKGPSVFPLAPSSKSTSGGTAALGCLVKDYFPEPVTVSWNSGALTSGVHTFPAVLQSSGLYSLSSVVTVPSSSLGTQTYICNVNHKPSNTKVDKKVEPKSCDKTHTCPPCPAPELLGGPSVFLFPPKPKDTLMISRTPEVTCVVVDVSHEDPEVKFNWYVDGVEVHNAKTKPREEQYNSTYRVVSVLTVLHQDWLNGKEYKCKVSNKALPAPIEKTISKAKGQPREPQVYVYPPSRDELTKNQVSLTCLVKGFYPSDIAVEWESNGQPENNYKTTPPVLDSDGSFALVSKLTVDKSRWQQGNVFSCSVMHEALHNHYTQKSLSLSPG
light: not shown
Fc: not shown
notes: Fc substitutions are in EU numbering; also called v10014
B6: Variant 14025 (antibody, human IgG1, kappa)
heavy: B5 heavy with A30Q, K76W
light: not shown
chain: not shown
notes: OA (one-armed) format; clones 8775, 1811, 4372; also called v14025
B7: Variant 14024 (antibody, human IgG1, kappa)
heavy: B5 heavy with A30T, K76W
light: not shown
chain: not shown
notes: OA (one-armed) format; clones 7844, 7919, 4372; also called v14024
B8: Variant 14032 (antibody, human IgG1, kappa)
heavy: B5 heavy with A30Q, S103W
light: not shown
chain: not shown
notes: OA (one-armed) format; clones 8780, 1811, 4372; also called v14032

molecular target: T1, HER2 expressed on the surface of cells (human, UniProt P04626 23-1255); assay: cell-based or functional assay

First: B1
Second: B2
The “growth inhibition span (percentage of cells killed), MDA-MB-175 cells” value of the first is lower: 80% for the first, 84% for the second.

Going from B3 to B4, the “growth inhibition span (percentage of cells killed), MDA-MB-175 cells” value rises from 82% to 83%.

molecular target: T2, Recombinant human HER2 (human, UniProt P04626 23-652); assay: SPR at 25 C of the OA variant, logarithm of the association constant
T2 construct: extracellular domain; Analyte of the SPR assays; also called HER2 ECD; ECD2 of HER2
Protocol: (§1) The affinity towards HER2 ECD of the samples was measured by SPR on a Biacore T200 as follows. Between 2000 and 4000 RU of anti-human Fc injected at concentration between 5 and 10 μg/ml was immobilized on a CM5 chip using standard amine coupling. Antigen-binding constructs were captured on the anti-human Fc (injected at concentration at 0.51 microg/mL in PBST, 1 min at 10 microl/min) at response levels ranging from 120-270 RU. […] HER2 dilutions were analyzed in duplicates. Sensograms were fit globally to a 1: 1 Langmuir binding model, using the software provided with the Biacore T200. All experiments were conducted at 25° C.

Compared with B5, B6 is higher in “Log Ka” value: 8.7 for the first, 9.4 for the second.

First: B7
Second: B8
The “Log Ka” value of the first is higher: 9.6 for the first, 9.1 for the second.

molecular target: T2, Recombinant human HER2; assay: SPR, Biacore T200, 25 C; variant captured on anti-human Fc, HER2 flowed;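 further: HER2 extracellular domain analyte run as duplicate dilutions over amine-coupled anti-Fc on a CM5 chip, rates from global sensorgram fitting with a 1:1 Langmuir model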
Protocol: as §1

First: B6
Second: B7
The Kd of the first is 1.6-fold higher: about 400 pM for the first, about 250 pM for the second.

With B8 the Kd was 790 pM.

B6 and B7 are within 1.5-fold of each other in koff: about 2.6e-05 s⁻¹ for the first, about 2.1e-05 s⁻¹ for the second.

Binder B8 has a koff of 3.9e-05 s⁻¹.

B6 and B7 are within 1.5-fold of each other in kon: 65000 M⁻¹ s⁻¹ for the first, 85000 M⁻¹ s⁻¹ for the second.

For B8, the kon was 49000 M⁻¹ s⁻¹.

molecular target: T1, HER2 expressed on the surface of cells; assay: flow cytometry on BT474 cells, n=1; B50 = concentration at 50% of Bmax
Protocol: (§2) Binding of the test antigen-binding constructs to the surface of HER2+ cells was determined by flow cytometry. Cells were washed with PBS and resuspended in DMEM at 1×10⁵ cells/100 μl. 100 μl cell suspension was added into each microcentrifuge tube, followed by 10 μl/tube of the antigen-binding constructs. The tubes were incubated for 2 hr at 4° C. on a rotator. The microcentrifuge tubes were centrifuged for 2 min 2000 RPM at room temperature and the cell pellets washed with 500 μl media. Each cell pellet was resuspended in 100 μl of fluorochrome-labelled secondary antibody diluted in media to 2 μg/sample. The samples were then incubated for lhr at 4° C. on a rotator. After incubation, the cells were centrifuged for 2 min at 2000 rpm and washed in media. The cells were resuspended in 500 μl media, filtered, transferred to a tube containing 5 μl propidium iodide (PI) and analyzed on a BD LSR II flow cytometer according to the manufacturer's instructions. The B50 of the tested antigen-binding constructs was assessed by FACS with data analysis and curve fitting performed in GraphPad Prism. The experiment was carried out once (n=1) in SKBr3 cells, and twice (n=2) in SKOV3, MCF7, and BT-474 cells.
(§3) The experiment was performed once (n=1) in each cell line.

Going from B1 to B2, the B50 falls from 4.1 nM to 2 nM (2-fold).

B3 and B4 are within 1.5-fold of each other in B50: 2.4 nM for the first, 3 nM for the second.

molecular target: T1, HER2 expressed on the surface of cells; assay: flow cytometry on MCF7 cells (low HER2), n=1
Protocol: as §2, §3

First: B1
Second: B2
The Bmax of the first is higher: 640 MFI for the first, 590 MFI for the second.

Compared with B3, B4 is higher in Bmax: 610 MFI for the first, 630 MFI for the second.

molecular target: T1, HER2 expressed on the surface of cells; assay: flow cytometry on SKBR3 cells, n=1; B50 = concentration at 50% of Bmax
Protocol: as §2, §3

Going from B1 to B2, the B50 falls from 21 nM to 3.9 nM (5.4-fold).

B3 and B4 are within 1.5-fold of each other in B50: 10 nM for the first, 9.8 nM for the second.

molecular target: T2, Recombinant human HER2; assay: SPR at 25 C of the OA variant, equilibrium association constant
Protocol: as §1

Compared with B5, B6 is 5.3-fold higher in Ka: 4.7e+08 M⁻¹ for the first, 2.5e+09 M⁻¹ for the second.

Going from B7 to B8, the Ka falls from 4e+09 M⁻¹ to 1.3e+09 M⁻¹ (3.1-fold).

molecular target: T2, Recombinant human HER2; assay: calculated from the SPR Ka ratio to WT v10013;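 further: SPR at 25 °C with constructs captured on an anti-human Fc chip and HER2 extracellular domain as analyte, kinetics fitted to a 1:1 Langmuir model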

Compared with B6, B7 is lower in ΔΔG: -2.2 kcal/mol for the first, -2.5 kcal/mol for the second.

Binder B8 has a ΔΔG of -1.8 kcal/mol.

molecular target: T1, HER2 expressed on the surface of cells; assay: cell-based or functional assay; remark: another data set of the same source

Compared with B1, B2 is 2-fold higher in “growth inhibition IC50 (potency), SKBR3 cells” value: 170 pM for the first, 340 pM for the second.

B3 and B4 are within 1.5-fold of each other in “growth inhibition IC50 (potency), SKBR3 cells” value: 320 pM for the first, 410 pM for the second.

Going from B1 to B2, the “growth inhibition span (percentage of cells killed), SKBR3 cells” value rises from 26% to 32%.

First: B3
Second: B4
The “growth inhibition span (percentage of cells killed), SKBR3 cells” value of the first is higher: 31% for the first, 26% for the second.

First: B1
Second: B2
The “growth inhibition span ratio to WT, SKBR3 cells” value of the first is lower: 1.6 fold for the first, 1.9 fold for the second.

Going from B3 to B4, the “growth inhibition span ratio to WT, SKBR3 cells” value falls from 1.8 fold to 1.6 fold.

molecular target: T1, HER2 expressed on the surface of cells; assay: cell-based or functional assay; remark: another data set of the same source

B1 and B2 are within 1.5-fold of each other in “growth inhibition IC50 (potency), NCI-N87 cells, 5 days” value: 3500 pM for the first, 2500 pM for the second.

Compared with B3, B4 is 2.6-fold higher in “growth inhibition IC50 (potency), NCI-N87 cells, 5 days” value: 2000 pM for the first, 5200 pM for the second.

Compared with B1, B2 is lower in “growth inhibition span (percentage of cells killed), NCI-N87 cells” value: 55% for the first, 52% for the second.

Compared with B3, B4 is higher in “growth inhibition span (percentage of cells killed), NCI-N87 cells” value: 44% for the first, 63% for the second.

Going from B1 to B2, the “increase in efficacy with respect to the WT, NCI-N87 cells” value falls from 3.2 fold to 3.1 fold.

Going from B3 to B4, the “increase in efficacy with respect to the WT, NCI-N87 cells” value rises from 2.6 fold to 3.7 fold.

Compared with B1, B2 is higher in “increase in potency with respect to the WT, NCI-N87 cells” value: 2.6 fold for the first, 3.6 fold for the second.

Compared with B3, B4 is lower in “increase in potency with respect to the WT, NCI-N87 cells” value: 4.6 fold for the first, 1.8 fold for the second.

molecular target: T2, Recombinant human HER2; assay: SPR, 25 C; Ka ratio to WT v10013;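 further: constructs captured via anti-human Fc on CM5 chip, HER2 ECD as analyte in duplicate dilutions, sensorgrams globally fit to 1:1 Langmuir model on Biacore T200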
Protocol: as §1

First: B6
Second: B7
The “Ka, mut/Ka, WT” value of the first is lower: about 41 fold for the first, about 67 fold for the second.

With B8 the “Ka, mut/Ka, WT” value was 21 fold.

molecular target: T1, HER2 expressed on the surface of cells; assay: cell-based or functional assay; remark: another data set of the same source

B1 and B2 are within 1.5-fold of each other in “growth inhibition IC50 (potency), BT474 cells” value: 550 pM for the first, 630 pM for the second.

B3 and B4 are within 1.5-fold of each other in “growth inhibition IC50 (potency), BT474 cells” value: 490 pM for the first, 540 pM for the second.

Compared with B1, B2 is higher in “growth inhibition span (percentage of cells killed), BT474 cells” value: 27% for the first, 35% for the second.

First: B3
Second: B4
The “growth inhibition span (percentage of cells killed), BT474 cells” value of the first is higher: 33% for the first, 28% for the second.

Compared with B1, B2 is higher in “growth inhibition span ratio to WT, BT474 cells” value: 2.6 fold for the first, 3.3 fold for the second.

Going from B3 to B4, the “growth inhibition span ratio to WT, BT474 cells” value falls from 3.1 fold to 2.6 fold.

molecular target: T1, HER2 expressed on the surface of cells; assay: flow cytometry on SKBR3 cells, n=1
Protocol: as §2, §3

Compared with B1, B2 is lower in Bmax: 33000 MFI for the first, 29000 MFI for the second.

B3 and B4 are the same in Bmax: 31000 MFI for the first, 31000 MFI for the second.

molecular target: T2, Recombinant human HER2; assay: SPR at 25 C of the OA variant, logarithm of the association constant; remark: another data set of the same source
Protocol: as §1

Compared with B5, B6 is higher in “Log Ka” value: 8.7 for the first, 9.4 for the second.

First: B7
Second: B8
The “Log Ka” value of the first is higher: 9.6 for the first, 9.1 for the second.

molecular target: T1, HER2 expressed on the surface of cells; assay: cell-based or functional assay; remark: another data set of the same source

B1 and B2 are the same in “growth inhibition IC50 (potency), BT474 cells + EGF” value: 1700 pM for the first, 1700 pM for the second.

B3 and B4 are within 1.5-fold of each other in “growth inhibition IC50 (potency), BT474 cells + EGF” value: 2000 pM for the first, 2800 pM for the second.

First: B1
Second: B2
The “growth inhibition span (percentage of cells killed), BT474 cells + EGF” value of the first is lower: 37% for the first, 45% for the second.

Going from B3 to B4, the “growth inhibition span (percentage of cells killed), BT474 cells + EGF” value falls from 44% to 35%.

Compared with B1, B2 is higher in “growth inhibition span ratio to WT, BT474 cells + EGF” value: 2 fold for the first, 2.5 fold for the second.

Going from B3 to B4, the “growth inhibition span ratio to WT, BT474 cells + EGF” value falls from 2.4 fold to 1.9 fold.

molecular target: T1, HER2 expressed on the surface of cells; assay: flow cytometry on BT474 cells, n=1
Protocol: as §2, §3

Compared with B1, B2 is higher in Bmax: 22000 MFI for the first, 23000 MFI for the second.

B3 and B4 are the same in Bmax: 23000 MFI for the first, 23000 MFI for the second.

molecular target: T1, HER2 expressed on the surface of cells; assay: flow cytometry on MCF7 cells (low HER2), n=1; B50 = concentration at 50% of Bmax
Protocol: as §2, §3

Going from B1 to B2, the B50 falls from 2.6 nM to 0.8 nM (3.2-fold).

Compared with B3, B4 is 2-fold higher in B50: 1 nM for the first, 2 nM for the second.

molecular target: T2, Recombinant human HER2; assay: SPR at 25 C of the OA variant, equilibrium association constant; remark: another data set of the same source
Protocol: as §1

Compared with B5, B6 is 5.3-fold higher in Ka: 4.7e+08 M⁻¹ for the first, 2.5e+09 M⁻¹ for the second.

First: B7
Second: B8
The Ka of the first is 3.1-fold higher: 4e+09 M⁻¹ for the first, 1.3e+09 M⁻¹ for the second.
